Assay [1] concerns the target T1, human activated protein C (human, UniProt P04070 43-197; P04070 212-461).
T1 construct: also called human aPC; human APC
Put plainly: SPR (Biacore), 1:1 binding model. (In general: SPR reads the build-up and loss of mass on a sensor chip optically.)

The target in assay [2] is T2, cyno activated protein C (cyno (monkey)).
T2 construct: also called cyno aPC; cyno APC
The assay is described as follows: SPR (Biacore), 1:1 binding model.

For assay [3], the target named is T1, human activated protein C. The assay is described as follows: SPR (Biacore).
For assay [4], the target named is T1, human activated protein C. Put plainly: ELISA, coated antigen. For orientation: ELISA stands for enzyme-linked immunosorbent assay.
The target of assay [5] is T2, cyno activated protein C. The assay is described as follows: ELISA, coated antigen.
For assay [6], the target named is T3, human Protein C (human, UniProt P04070 43-461).
T3 construct: Zymogen used as negative control in the ELISA; also called human PC; hPC
The assay is described as follows: ELISA, coated antigen.

Positions count from the first letter of the chain named.

B1: Hu1573-5 (antibody, V domains shown)
VH: EVQLVESGGGLVQPGGSLRLSCAASGFTFSNYYLNWVRQAPGKGLEWVGDIRLKSNNYEKHYAESVKGRFTISRDDSKNSVYLQMNSLKTEDTAVYYCIREGDYFDYWGQGTTVTVSS
VL: DIVMTQTPLSLSVTPGQPASISCRASESVDSFGATFMHWYLQKPGQPPQLLIYLASNLESGVPDRFSGSGSRTDFTLKISRVEAEDVGVYYCQQNNEDPYTFGQGTKLEIKR
notes: Humanized IgG, human gamma 1 / kappa constant regions by vectors pCP-hCg1 and pCP-hck; also called H1573VH.1B + H1573Vk.2B
Regarding B1, the Kd – broadly, the free concentration of one partner at which half of the binding sites on the other are occupied at equilibrium, for simple one-to-one binding – in assay [1] is 4.16 nM; in assay [2], 14.5 nM; in assay [3], < 5 nM. The values for the off-rate (koff) in assay [1] and in assay [2] were 0.0064 s⁻¹ and 0.00293 s⁻¹, respectively. The kon (usually a measure of how fast the partners come together) in assay [1] stood at 1.54e+06 M⁻¹ s⁻¹; in assay [2], 202000 M⁻¹ s⁻¹. Further, the 50% effective concentration (EC50) – broadly, the concentration at which the effect is half-maximal – in assay [4] came to 0.552 nM; in assay [5] it was 1.03 nM. Moreover, the binding result in assay [6] is given as “no binding (tested: 20 nM)”.

B2: Hu1573-8 (antibody, V domains shown)
VH: B1 VH with G49A, V81L
VL: B1 VL
notes: Humanized IgG, human gamma 1 / kappa constant regions by vectors pCP-hCg1 and pCP-hck; also called H1573VH.1C + H1573Vk.2B
Turning to B2, the dissociation constant (Kd) in assay [1] is 4.03 nM; in assay [2] it was 12.3 nM; in assay [3] it was < 5 nM. Besides, the values for the off-rate constant (koff) in assay [1] and in assay [2] were 0.006 s⁻¹ and 0.00447 s⁻¹, respectively. In addition, the kon in assay [1] turned out to be 1.49e+06 M⁻¹ s⁻¹; in assay [2] it was 363000 M⁻¹ s⁻¹. In addition, the half-maximal effective concentration (EC50) in assay [4] was determined as 0.697 nM; in assay [5], 0.713 nM. Besides, the binding result in assay [6] is “no binding (tested: 20 nM)”.

B3: Hu1573-10 (antibody, V domains shown)
VH: B1 VH with N79S, V81L
VL: B1 VL with M4L, R72G
notes: Humanized IgG, human gamma 1 / kappa constant regions by vectors pCP-hCg1 and pCP-hck; also called H1573VH.1D + H1573Vk.2A
In the case of B3, the Kd in assay [1] was 4.38 nM; in assay [2] it was 11 nM; in assay [3], < 5 nM. Moreover, the dissociation rate constant (koff) (as a rule, the first-order rate constant of dissociation) is 0.00636 s⁻¹ in assay [1] and 0.00479 s⁻¹ in assay [2]. For the same molecule, the kon in assay [1] was 1.45e+06 M⁻¹ s⁻¹; in assay [2], 434000 M⁻¹ s⁻¹. For the same molecule, the 50% effective concentration (EC50) was 0.575 nM in assay [4] and 0.68 nM in assay [5]. Further, the binding result in assay [6] was “no binding (tested: 20 nM)”.

These data come from USRE49099 (Bayer, dated 2022).
